# Measured values: article PMC1166539, “Determination of thermodynamic parameters of Xerocomus chrysenteron lectin interactions with N-acetylgalactosamine and Thomsen-Friedenreich antigen by isothermal titration calorimetry” (BMC Biochemistry, 2005)
# T1: XCL (XCLtag), Xerocomus chrysenteron lectin (Xerocomellus chrysenteron, UniProt Q8WZC9)
# T1 construct: recombinant, E. coli BL21(DE3); homotetramer
# T1 sequence (Q8WZC9 1-143): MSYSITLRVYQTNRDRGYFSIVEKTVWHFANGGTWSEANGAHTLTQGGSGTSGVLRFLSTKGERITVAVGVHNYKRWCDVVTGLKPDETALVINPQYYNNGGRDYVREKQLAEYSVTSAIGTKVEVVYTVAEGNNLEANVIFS
# B1: fetuin from fetal bovine serum (natural protein, UniProt P12763 19-359, looked up)
# chain: IPLDPVAGYKEPACDDPDTEQAALAAVDYINKHLPRGYKHTLNQIDSVKVWPRRPTGEVYDIEIDTLETTCHVLDPTPLANCSVRQQTQHAVEGDCDIHVLKQDGQFSVLFTKCDSSPDSAEDVRKLCPDCPLLAPLNDSRVVHAVEVALATFNAESNGSYLQLVEISRAQFVPLPVSVSVEFAVAATDCIAKEVVDPTKCNLLAEKQYGFCKGSVIQKALGGEDVRVTCTLFQTQPVIPQPQPDGAEAEAPSAVPDAAGPTPSAAGPPVASVVVGPSVVAVPLPLHRAHYDLRHTFSGVASVESSSGEAFHVGKTPIVGQPSIPGGPVRLCPGRIRYFKI
# modifications: three carbohydrate units O-linked to Thr or Ser residues and three complex glycans N-linked to Asn residues (a fourth O-linked residue may exist); exposed Gal residues linked to sialic acid residues
# notes: fetuin (fetuin-A, alpha-2-HS-glycoprotein), bovine, from fetal bovine serum; glycoprotein bearing the Thomsen-Friedenreich antigen motif; also called native fetuin; source: bought: Sigma (from fetal bovine serum)
# B2: asialofetuin from fetal bovine serum (natural protein, UniProt P12763 19-359, looked up)
# chain: B1 chain
# modifications: O-linked and N-linked glycans as in fetuin, but the sialic acid residues are absent
# notes: fetuin (fetuin-A, alpha-2-HS-glycoprotein), bovine, from fetal bovine serum, without sialic acids (asialofetuin); Same polypeptide as fetuin; it differs only in lacking sialic acid on the glycans; source: bought: Sigma (from fetal bovine serum)
# B3: Xerocomus chrysenteron lectin with histidine tag and TEV site (natural protein, UniProt Q8WZC9 1-143, looked up)
# chain: T1 sequence (Q8WZC9 1-143)
# notes: lectin from the mushroom Xerocomus chrysenteron (XCL); expressed as a fusion of histidine tag, TEV site and XCL; The fits used the monomer concentration; also called XCL; XCLtag
# How the values were obtained:
# [1] = molecular target: T1, XCL (XCLtag), Xerocomus chrysenteron lectin; test: isothermal titration calorimetry; type: binding; details: 25 mM sodium phosphate pH 7, 27°C
# [2] = molecular target: B3; test: ITC; 2 mM fetuin or asialofetuin titrated (38 injections of 5 ul) into 0.25 mM XCLtag in the cell; 27°C; 25 mM Na2HPO4/NaH2PO4, pH 7; XCL monomer concentration used in the fit; details: both partners purified
# [3] = molecular target: B3; test: as above; details: both partners purified; remark: listed apart in the source
# [4] = molecular target: B1; test: as above; details: both partners purified
# [5] = molecular target: B2; test: as above; details: both partners purified
Molecule,stoichiometry N [2],dH [3] [kcal/mol],further results
CC(=O)N[C@H]1C(O)O[C@H](CO)[C@@H](O[C@@H]2O[C@H](CO)[C@H](O)[C@H](O)[C@H]2O)[C@@H]1O (some centres unmarked) [N-acetyllactosamine],,,"Kd ([1]; significant fitting errors stated for Ka below 100 M^-1, read-out: affinity constant (converted)): ~20 mM"
CC(=O)N[C@H]1C(O)O[C@H](CO)[C@H](O)[C@@H]1O (some centres unmarked) [N-acetylgalactosamine],,,"Ka, M^-1 ([1]; no PEG, per monomer, abstract prints Kd 5.2 μM, inconsistent with this Ka (reciprocal 5.2 mM)): 192 ± 5"
B1,0.23,-21.5 ± 0.5,
B2,0.23,-16.8 ± 2.5,
B3,,,Ka [4]: 590000 ± 1.4 M⁻¹; Ka [5]: 2.59e+06 ± 0.6 M⁻¹
